# Laboratory results: PMC2689706
# pKd: −log10 of the molar value.
# Target: bacterially expressed GST-tagged eRF3 (UniProt P15170)
# Assay: not stated; unpublished data; bacterially expressed GST-tagged eRF3 with partner translated in rabbit reticulocyte lysate
row,Substance,pKd
1,rabbit reticulocyte-lysate-translated PABPC1 (from UniProt P11940 1-636) (natural protein),8.30
2,rabbit reticulocyte-lysate-translated hUpf1 (from UniProt Q92900 1-1129) (natural protein),< 6.00
